In paper PMC2680336:

Biological target: Ect2 (UniProt Q9H8V3)
Assay: anti-myc IP, anti-FLAG blot
Conditions: reference: wild-type FLAG-HsCYK-4; sites S157

## HsCYK-4 (MgcRacGAP) (from UniProt Q9H0H5) S157A
  binding against the reference: weaker
